The record followed here is patent US20260144882A1 (BIO THERA SOLUTIONS, published 2026).

Experiment [1] has as its target T1, mouse mNectin-4 protein (ACRO, NE4-M52H3) (mouse, UniProt Q8R007 31-347).
T1 construct: bought; construct not described; also called mouse Nectin-4
T1 sequence (looked up): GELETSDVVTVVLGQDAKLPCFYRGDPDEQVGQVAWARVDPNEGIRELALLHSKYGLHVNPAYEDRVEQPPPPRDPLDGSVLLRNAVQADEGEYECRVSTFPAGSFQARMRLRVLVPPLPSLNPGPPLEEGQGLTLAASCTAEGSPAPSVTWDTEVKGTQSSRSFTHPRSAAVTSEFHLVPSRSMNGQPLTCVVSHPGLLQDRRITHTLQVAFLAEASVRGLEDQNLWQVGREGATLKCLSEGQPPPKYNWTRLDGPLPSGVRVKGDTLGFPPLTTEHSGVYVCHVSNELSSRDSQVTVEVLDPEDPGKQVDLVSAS
Description: ELISA, coated antigen.

The target in experiment [2] is T2, human Nectin-4 extracellular antigen hNectin-4-His (human, UniProt Q96NY8 32-349).
T2 construct: C-terminal 8xHis tag included
T2 sequence: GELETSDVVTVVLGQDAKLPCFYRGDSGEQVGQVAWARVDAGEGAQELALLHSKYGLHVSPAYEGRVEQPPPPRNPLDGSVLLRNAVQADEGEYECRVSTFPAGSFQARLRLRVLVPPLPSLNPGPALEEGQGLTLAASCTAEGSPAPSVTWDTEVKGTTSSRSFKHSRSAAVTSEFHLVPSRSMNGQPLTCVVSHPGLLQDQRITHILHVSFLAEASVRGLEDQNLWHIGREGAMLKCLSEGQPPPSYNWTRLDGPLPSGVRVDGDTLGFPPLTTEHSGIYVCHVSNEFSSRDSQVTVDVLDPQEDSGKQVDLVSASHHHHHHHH
Nature of the experiment: ELISA, coated hNectin-4-His. From the text:
(§1) The binding activity of the antibodies was detected by ELISA.

For experiment [3], the target named is T3, human Nectin-4, full length on cells (human, UniProt Q96NY8 32-510).
T3 construct: whole, on cells; T-47D cells positive for Nectin-4 expression; also called Nectin-4 on T-47D cells; CHO-Nectin-4
T3 sequence (looked up): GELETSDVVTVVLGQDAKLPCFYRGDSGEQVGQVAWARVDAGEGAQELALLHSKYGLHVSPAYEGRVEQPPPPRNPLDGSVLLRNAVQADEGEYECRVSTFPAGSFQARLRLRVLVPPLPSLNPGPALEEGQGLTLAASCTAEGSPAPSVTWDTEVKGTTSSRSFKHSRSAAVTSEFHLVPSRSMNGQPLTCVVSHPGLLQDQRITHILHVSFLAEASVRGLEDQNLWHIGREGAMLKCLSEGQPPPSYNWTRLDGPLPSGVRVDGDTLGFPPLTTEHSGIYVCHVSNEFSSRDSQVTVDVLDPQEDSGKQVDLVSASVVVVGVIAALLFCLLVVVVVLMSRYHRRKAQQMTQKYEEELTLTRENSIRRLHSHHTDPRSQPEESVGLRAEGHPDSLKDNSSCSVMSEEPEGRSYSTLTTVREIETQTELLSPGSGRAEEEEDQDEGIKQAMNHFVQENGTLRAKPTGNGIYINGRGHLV
Description: flow cytometry, T-47D cells, antibody bound on ice, 0 h at 37 C. On the procedure:
In this assay, the relative amount of antibodies remaining on the cell surface after co-incubation at 37° C. for a certain period of time was detected by FACS to reflect the endocytosis efficiency. The procedures are briefly described as follows: T-47D cells (human ductal breast cancer cells, derived from the Cell Bank of Chinese Academy of Sciences, Cat.No. TCHu 87); the antibodies of interest were adjusted to 10 µg/mL and co-incubated with the cells on ice for 1 h; the cells were washed 3 times with pre-cooled PBS, and then placed at 37° C. and incubated for 0 h, 2 h and 4 h; 0.2% N₃Na was added to stop the endocytosis reaction; the cells were washed with PBS thrice, followed by the addition of the PE-labeled anti-human Fc secondary antibody (Invitrogen 12-4998-82); the cells were incubated at 4° C. for 30 min; the red fluorescence signal was detected on a flow cytometer.
In general terms: A flow cytometer gives signals particle by particle.

In experiment [4] the target is T2, human Nectin-4 extracellular antigen …. Description: ELISA, coated hNectin-4-His.
From the text: as §1
The source holds these as a separate data set. In general terms: In an ELISA, binding on a coated surface is turned into a signal by an enzyme label.

Experiment [5] has the same target. Nature of the experiment: ELISA, coated hNectin-4-His.
From the text: as §1
This is another data set of the same source.

Where “and” joins values, the source holds several entries; their conditions need not be identical. Equal entries are not always repeated. Where two headings read alike, the source gives them in different places.

What is called EC50 is the midpoint of the concentration-response curve. A low value points to higher potency in that assay.

B1: antibody 1G8 (antibody, human IgG1, kappa, V domains shown)
VH: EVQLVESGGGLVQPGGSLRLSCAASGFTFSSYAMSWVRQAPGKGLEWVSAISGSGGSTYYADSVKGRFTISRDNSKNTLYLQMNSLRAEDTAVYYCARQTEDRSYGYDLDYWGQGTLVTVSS
VL: DIQMTQSPSSLSASVGDRVTITCRASQGISSYLAWYQQKPGKAPKLLIYAASSLQSGVPSRFSGSGSGTDFTLTISSLQPEDFATYYCQQHYTTPPTFGQGTKVEIKR
In the case of B1, the EC50 in experiment [1] amounted to 0.037 µg/mL; in experiment [2], 0.068 µg/mL. Moreover, in experiment [3], the “MFI (mean fluorescence intensity) 0 h” value worked out at 105000 MFI.

B2: antibody 1F3 (antibody, human IgG1, kappa, V domains shown)
VH: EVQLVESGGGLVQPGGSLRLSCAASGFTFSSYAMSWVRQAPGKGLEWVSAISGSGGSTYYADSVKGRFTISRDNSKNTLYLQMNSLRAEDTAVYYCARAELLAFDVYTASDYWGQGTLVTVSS
VL: DIQMTQSPSSLSASVGDRVTITCRASQGISSYLAWYQQKPGKAPKLLIYAASSLQSGVPSRFSGSGSGTDFTLTISSLQPEDFATYYCQQHYTTPPTFGQGTKVEIKR
For B2, the EC50 in experiment [1] stood at 0.034 µg/mL; in experiment [2] it was 0.041 µg/mL; in experiment [4], 0.005 µg/mL. Moreover, the “MFI (mean fluorescence intensity) 0 h” value in experiment [3] was 121000 MFI.

B3: antibody 10F4 (antibody, human IgG1, kappa, V domains shown)
VH: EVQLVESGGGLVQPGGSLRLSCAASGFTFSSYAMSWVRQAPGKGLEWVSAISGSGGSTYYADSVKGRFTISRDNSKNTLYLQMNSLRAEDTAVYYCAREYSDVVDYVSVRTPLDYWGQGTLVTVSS
VL: DIQMTQSPSSLSASVGDRVTITCRASQGISSYLAWYQQKPGKAPKLLIYAASSLQSGVPSRFSGSGSGTDFTLTISSLQPEDFATYYCQQHYTTPPTFGQGTKVEIKR
In the case of B3, the EC50 in experiment [1] was 0.041 µg/mL; in experiment [2], 0.038 µg/mL; in experiment [5], 0.041 µg/mL and 0.043 µg/mL. Also, the “MFI (mean fluorescence intensity) 0 h” value in experiment [3] came to 104000 MFI.
